{
  "source": "patent US20190300590A1",
  "binders": {"B1": {"name": "[Ac-[Pen]-NTWQ-[Pen]-[Phe(4-CONH2)]-[2-Nal]-[Aib]-KNN-NH2]2DIG (peptide)", "peptide": "XNTWQXFXXKNN", "modifications": "Ac; Pen-Pen disulfide; Phe(4-CONH2); 2-Nal; Aib; NH2; DIG linker joins the two subunits"}, "B2": {"name": "Ac-[Pen]-QTWQ-[Pen]-[2-Nal]-[2-Nal]-[α-MeLys]-ENG-NH2 (peptide)", "peptide": "Ac-[Pen]QTWQ[Pen][2Nal][2Nal][αMeK]ENG-NH2", "modifications": "disulfide 1-6", "SMILES": "CC(=O)N[C@@H]1C(=O)N[C@@H](CCC(N)=O)C(=O)N[C@@H]([C@@H](C)O)C(=O)N[C@@H](Cc2c[nH]c3ccccc23)C(=O)N[C@@H](CCC(N)=O)C(=O)N[C@H](C(=O)N[C@@H](Cc2ccc3ccccc3c2)C(=O)N[C@@H](Cc2ccc3ccccc3c2)C(=O)N[C@@](C)(CCCCN)C(=O)N[C@@H](CCC(=O)O)C(=O)N[C@@H](CC(N)=O)C(=O)NCC(N)=O)C(C)(C)SSC1(C)C"}, "B3": {"name": "[Ac-[Pen]-NTWQ-[Pen]-[Phe(4-CONH2)]-[2-Nal]-[Acvc]-KNN-NH2]2DIG (peptide)", "peptide": "XNTWQXFXXKNN", "modifications": "Ac; Pen-Pen disulfide; Phe(4-CONH2); 2-Nal; Acvc; NH2; DIG linker joins the two subunits"}},
  "note": "*1 amine or outer side, *2 acyl side, *3 side chain or, on linkers, in order; H or OH if unused. Bridges are numbered along the chain shown (N, C = ends). Primed or numbered codes have the meaning given here. [ ]: non-standard residue; d: D form. Phe(4-(2-acetylaminoethoxy))″ = 4-(2-acetylaminoethoxy)phenylalanine, CC(=O)NCCOc1ccc(C[C@H](N[*:1])C(=O)[*:2])cc1; Phe(4-OMe)(4) = O-methyl-L-tyrosine, COc1ccc(C[C@H](N[*:1])C(=O)[*:2])cc1; 2Nal = N[C@@H](Cc1ccc2ccccc2c1)C(=O)O; AEF = NCCOc1ccc(C[C@H](N)C(=O)O)cc1; Cit = NC(=O)NCCC[C@H](N)C(=O)O; αMeOrn = C[C@](N)(CCCN)C(=O)O; Pen = CC(C)(S)[C@H](N)C(=O)O; αMeK = C[C@](N)(CCCCN)C(=O)O; Orn = NCCC[C@H](N)C(=O)O; Dab = NCC[C@H](N)C(=O)O; Abu = CC[C@H](N)C(=O)O; Dap = NC[C@H](N)C(=O)O; Aib = CC(C)(N)C(=O)O",
  "data": [
    {"biological_target": "IL23R_huFC (human) (UniProt Q5VWK5)", "assay": "human ELISA vs IL-23", "units": {"IC50": "nM"}, "values": [
      {"binder": "Ac-[Abu]QTWQC[Phe(4-OMe)(4)][2Nal][Orn][Dap]NG-NH2 (thioether 1-6)", "note": "[Ac-Cyclo-[[Abu]-QTWQC]-[Phe(4-OMe)]-[2-Nal]-[Orn]-[Dap]-NG-NH2]", "IC50": "100 to 1000"},
      {"binder": "Ac-[Abu]QTWQC[AEF][2Nal][Orn][Dap](Ac)NG-NH2 (thioether 1-6)", "note": "[Ac-Cyclo-[[Abu]-QTWQC]-[Phe[4-(2-aminoethoxy)]]-[2-Nal]-[Orn]-[Dap(Ac)]-NG-NH2]", "IC50": "25 to 100"},
      {"binder": "Ac-[Abu]QTWQC[AEF][2Nal][Orn][Dap]NG-NH2 (thioether 1-6)", "note": "[Ac-Cyclo-[[Abu]-QTWQC]-[Phe[4-(2-aminoethoxy)]]-[2-Nal]-[Orn]-[Dap]-NG-NH2]", "IC50": "25 to 100"},
      {"binder": "Ac-[Abu]QTWQC[AEF][2Nal][Aib]E[Dap](Ac)G-NH2 (thioether 1-6)", "note": "[Ac-Cyclo-[[Abu]-QTWQC]-[Phe[4-(2-aminoethoxy)]]-[2-Nal]-[Aib]-E-[Dap(Ac)]-G-NH2]", "IC50": "10 to 25"},
      {"binder": "Ac-[Abu]QTWQC[AEF][2Nal][Aib]E[Dab](Ac)G-NH2 (thioether 1-6)", "note": "[Ac-Cyclo-[[Abu]-QTWQC]-[Phe[4-(2-aminoethoxy)]]-[2-Nal]-[Aib]-E-[Dab(Ac)]-G-NH2]", "IC50": "< 10"},
      {"binder": "Ac-[Abu]QTWQC[AEF][2Nal][Cit][Dap]NG-NH2 (thioether 1-6)", "note": "[Ac-Cyclo-[[Abu]-QTWQC]-[Phe[4-(2-aminoethoxy)]]-[2-Nal]-[Cit]-[Dap]-NG-NH2]", "IC50": "10 to 25"}
    ]},
    {"biological_target": "IL23R_huFC (human) (UniProt Q5VWK5)", "assay": "IL23-IL23R competitive binding ELISA", "units": {"IC50": "nM"}, "values": [
      {"binder": "Ac-[Pen][αMeOrn](Ac)TWQ[Pen][Phe(4-(2-acetylaminoethoxy))″][2Nal][αMeK](Ac)ENG-NH2 (disulfide 1-6 (inferred))", "note": "[Ac-[Pen]-[α-MeOrn(Ac)]-TWQ-[Pen]-[Phe[4-(2-acetylaminoethoxy)]-[2-Nal]-[α-MeLys(Ac)]-ENG-NH2]", "IC50": "100 to 1000"},
      {"binder": "XQTWQXFXXKNN (Ac; Pen-Pen disulfide; Phe[4-(2-acetylaminoethoxy)]; 2-Nal; Aib; Lys(Ac); NH2)", "note": "[Ac-[Pen]-QTWQ-[Pen]-[Phe[4-(2-acetylaminoethoxy)]-[2-Nal]-[Aib]-[Lys(Ac)]-NN-NH2]", "IC50": "< 10"},
      {"binder": "XQTWQXFXXKNN (Ac; Pen-Pen disulfide; Phe[4-(2-aminoethoxy)]; 2-Nal; Aib; Lys(Ac); NH2)", "note": "[Ac-[Pen]-QTWQ-[Pen]-[Phe[4-(2-aminoethoxy)]-[2-Nal]-Aib-[Lys(Ac)]-NN-NH2]", "IC50": "< 10"},
      {"binder": "B1", "IC50": "< 10"},
      {"binder": "XNTWQXFXXKNN (Ac; Pen-Pen disulfide; Phe[4-(2-aminoethoxy)]; 2-Nal; Aib; Lys(Ac); NH2)", "note": "[Ac-[Pen]-NTWQ-[Pen]-[Phe[4-(2-aminoethoxy)]-[2-Nal]-[Aib]-[Lys(Ac)]-NN-NH2]", "IC50": "< 10"},
      {"binder": "XQTWQXFXXENN (Ac; Pen-Pen disulfide; Phe[4-(2-acetylaminoethoxy)]; 2-Nal; Aib; NH2)", "note": "[Ac-[Pen]-QTWQ-[Pen]-[Phe[4-(2-acetylaminoethoxy)]-[2-Nal]-[Aib]-ENN-NH2]", "IC50": "10 to 25"},
      {"binder": "XQTWQXFXXKNG (Ac; Pen-Pen disulfide; Phe(4-OMe); 2-Nal; α-MeOrn; Lys(Ac); NH2)", "note": "[Ac-[Pen]-QTWQ-[Pen]-[Phe(4-OMe)]-[2-Nal]-[α-MeOrn]-[Lys(Ac)]-NG-NH2]", "IC50": "100 to 1000"},
      {"binder": "B2", "IC50": "100 to 1000"},
      {"binder": "Ac-[Pen][αMeOrn]TWQ[Pen][AEF][2Nal][αMeK]ENG-NH2 (disulfide 1-6 (inferred))", "note": "[Ac-[Pen]-[α-MeOrn]-TWQ[Pen]-[Phe[4-(2-aminoethoxy)]-[2-Nal]-[α-MeLys]-ENG-NH2]", "IC50": "100 to 1000"},
      {"binder": "Ac-[Pen][Dap]TWQ[Pen][AEF][2Nal][αMeK]ENG-NH2 (disulfide 1-6 (inferred))", "note": "[Ac-[Pen]-[Dap]-TWQ-[Pen]-[Phe[4-(2-aminoethoxy)]-[2-Nal]-[α-MeLys]-ENG-NH2]", "IC50": "< 10"},
      {"binder": "XQTWQXYXXENG (Ac; Pen-Pen disulfide; 2-Nal; α-MeOrn; NH2)", "note": "[Ac-[Pen]-QTWQ-[Pen]-Y-[2-Nal]-[α-MeOrn]-ENG-NH2]", "IC50": "25 to 100"},
      {"binder": "B3", "IC50": "< 10"},
      {"binder": "Ac-[Pen][Dap](Ac)TWQ[Pen][Phe(4-(2-acetylaminoethoxy))″][2Nal][αMeK](Ac)ENG-NH2 (disulfide 1-6 (inferred))", "note": "[Ac-[Pen]-Dap(Ac)TWQ-[Pen]-[Phe[4-(2-acetylaminoethoxy)]-[2-Nal]-[α-MeLys(Ac)]-ENG-NH2]", "IC50": "10 to 25"},
      {"binder": "XQTWQXYXXENG (Ac; Pen-Pen disulfide; 1-Nal; α-MeOrn; NH2)", "note": "[Ac-[Pen]-QTWQ-[Pen]-Y-[1-Nal]-[α-MeOrn]-ENG-NH2]", "IC50": "100 to 1000"},
      {"binder": "XQTWQXFXXENN (Ac; Pen-Pen disulfide; Phe[4-(2-aminoethoxy)]; 2-Nal; Aib; NH2)", "note": "[Ac-[Pen]-QTWQ-[Pen]-[Phe[4-(2-aminoethoxy)]-[2-Nal]-[Aib]-ENN-NH2]", "IC50": "< 10"}
    ]},
    {"biological_target": "Rat IL-23R_huFC (rat) (UniProt F1LX96)", "assay": "rat IL-23R competitive binding ELISA", "units": {"IC50": "nM"}, "values": [
      {"binder": "XNTWQXFXXKNA (Ac; Pen-Pen disulfide; Phe[4-(2-aminoethoxy)]; 2-Nal; Aib; Lys(Ac); βAla; NH2)", "note": "[Ac-[Pen]-NTWQ-[Pen]-[Phe[4-(2-aminoethoxy)]-[2-Nal]-[Aib]-[Lys(Ac)]-N-[βAla]-NH2]", "IC50": "10 to 25"},
      {"binder": "B1", "IC50": "10 to 25"},
      {"binder": "XNTWQXFXXKNN (Ac; Pen-Pen disulfide; Phe[4-(2-aminoethoxy)]; 2-Nal; Aib; Lys(Ac); NH2)", "note": "[Ac-[Pen]-NTWQ-[Pen]-[Phe[4-(2-aminoethoxy)]-[2-Nal]-[Aib]-[Lys(Ac)]-NN-NH2]", "IC50": "< 10"},
      {"binder": "B2", "IC50": "100 to 1000"},
      {"binder": "Ac-[Pen][Dap]TWQ[Pen][AEF][2Nal][αMeK]ENG-NH2 (disulfide 1-6 (inferred))", "note": "[Ac-[Pen]-[Dap]-TWQ-[Pen]-[Phe[4-(2-aminoethoxy)]-[2-Nal]-[α-MeLys]-ENG-NH2]", "IC50": "25 to 100"},
      {"binder": "XQTWQXYXXENG (Ac; Pen-Pen disulfide; 2-Nal; α-MeOrn; NH2)", "note": "[Ac-[Pen]-QTWQ-[Pen]-Y-[2-Nal]-[α-MeOrn]-ENG-NH2]", "IC50": "100 to 1000"},
      {"binder": "B3", "IC50": "10 to 25"},
      {"binder": "XQTWQXYXXENG (Ac; Pen-Pen disulfide; 1-Nal; α-MeOrn; NH2)", "note": "[Ac-[Pen]-QTWQ-[Pen]-Y-[1-Nal]-[α-MeOrn]-ENG-NH2]", "IC50": "100 to 1000"}
    ]}
  ]
}
